System: MS2 coat protein
Assay: apparent KD of MS2 coat protein; designed switch direction (-1 OFF switch, 1 ON switch): -1; higher = weaker reporter binding
Method in brief: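 Stalled E. coli RNA polymerase transcribed designed RNA switches on Illumina chips, which were then titrated with SNAP-549-labelled MS2 coat protein, doubling from 0.7 or 1.5 nM to 3 µM. Steps lasted from 0.8–1.5 h at the lowest concentration to 10–20 min at the highest. The apparent KD is each design's median over clusters of curve-fitted normalised fluorescence.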

[1] = input ligand: microRNA oligo, concentration not stated
[2] = Eterna round: R95, input ligand: microRNA oligo, concentration not stated

Sequence	apparent KD of MS2 coat protein (input ligand: FMN 200 uM) [nM]	apparent KD of MS2 coat protein [1] [nM]	apparent KD of MS2 coat protein (input ligand: none) [nM]	apparent KD of MS2 coat protein [2] [nM]	also measured
CCAGCGGACAAAGGAUAUUGCGGUGGCCGGCUCGGCGUACCGAGCCUACAUGAGGAUCACCCAUGUAAGAAGGUUGUCGUAGGA [Mat - Exclusion NG 2 - Mod of JL - D72] (Eterna round: R96, puzzle: Exclusion NG 2)	72.2	12.2	22.7		
CCAGCGUAUGUGAGGAUAUGCUGGUCCUUGGAUCAGCAGAAGGCACAUGAGGAUCACCCAUGUAGAGACGUUGG [JL bmx4 3.43] (puzzle: Brourd's mod of Exclusion 4)				21.6	
CCAGCGUAUGUGAGGAUAUGCUGGUCCUUGGAUCAGCAGAAGGCACAUGAGGAUCACCCAUGUGAUAACGUUGG [JL bmx4 3.39] (puzzle: Brourd's mod of Exclusion 4)				46.6	
CCAGCGUAUGUGAGGAUAUGCUGGUCCUUGGAUCAGCAGAAGGCACAUGAGGAUCACCCAUGUGGAAAAGUUGG [Mod of JL 23 - Jieux - Brourd's mod of Exclusion 4] (Eterna round: R97, puzzle: Brourd's mod of Exclusion 4)	164		27.3		
CCAGCGUGUGUGAGGAUAUGCUGGUCCUUGGAUCAGCAGAAGGCACAUGAGGAUCACCCAUGUGAGGACGUUGG [JL bmx4 3.32] (puzzle: Brourd's mod of Exclusion 4)				19.9	
CCAGCGUGUGUGAGGAUAUGCUGGUCCUUGGAUCAGCAGAAGGCACAUGAGGAUCACCCAUGUGAGUACGUUGG [JL bmx4 3.34] (puzzle: Brourd's mod of Exclusion 4)				15	
CCAGCUCGUGUUAGGAUAUCCAAGCUGCGGCUGGUGGAGAAGGGACAUGAGGAUCACCCAUGUAAUAAAGAAAA [On] (puzzle: Brourd's mod of Exclusion 4)				21.4	
CCAGGCAGUGUGAGGAUAUCGUGGUCCUUGGAUCACGAGAAGGCACAUGAGGAUCACCCAUGUGAAUAGCUUGG [Mat - Exclusion 4 - JL Mod - D100] (puzzle: Brourd's mod of Exclusion 4)				21.9	
CCAGGCAGUGUGAGGAUAUGCUGGUCCUUGGAUCAGCAGAAGGCACAUGAGGAUCACCCAUGUGAAGAGCUUGG [JL bmx4 3.24] (puzzle: Brourd's mod of Exclusion 4)				24.1	
CCAGUGUGCUUCAGGACAUGAGGAUCACCCAUGUUCGCAAAAUAGGAUAUUGGGUGUAGGCCGCGCAAGAAGGGUUAUGCGAAC [Disobeus] (Eterna round: R96, puzzle: Exclusion NG 3)	117	79.8	83.4		
CCAUAAAGGAAGGAUAUGCUAGACGAAAGUCUAGCAGAAGGUCCUACAUGAGGAUCACCCAUGUGGCCUCAUGG [Mat - Exclusion 6 - Eli Mod - D49] (Eterna round: R97, puzzle: Exclusion 6)	116		198		
CCAUAGUGAGGAUAUGUAAACGUGUUGGCGAAAUCAGCACGGCAGAAGGCACAUGAGGAUCACCCAUGUCCUGA [Eternabot (L2) Solution 45] (Eterna round: R97, puzzle: Exclusion 4)	25.9		20.8		
CCAUAUAGGCGAGGAUAUACGCACCACUAACUAGUAGAAGGCGCACAUGAGGAUCACCCAUGUGAUUUCUCAAUAUUAUACAUC [Prohibition 72 - Jieux - Exclusion NG 1] (Eterna round: R96, puzzle: Exclusion NG 1)	174	107	157		
CCAUCGAGUGUGAGGAUAUGCUGGUCCAUAGAUCAGCAGAAGGCACAUGAGGAUCACCCAUGUGGAGACGGUGG [Mat - Exclusion 4 - JL Mod - D78] (Eterna round: R96, puzzle: Brourd's mod of Exclusion 4)		31			
CCAUCGAGUGUGAGGAUAUGCUGGUCCAUAGAUCAGCAGAAGGCACAUGAGGAUCACCCAUGUGGAGACGGUGG [Mat - Exclusion 4 - JL Mod - D78] (puzzle: Brourd's mod of Exclusion 4)				34.4	apparent KD of MS2 coat protein (Eterna round: R95, input ligand: FMN 200 uM): 418 nM; apparent KD of MS2 coat protein (Eterna round: R95, input ligand: none): 36.6 nM
CCAUCGAGUGUGAGGAUAUGCUGGUCCUUGGAUCAGCAGAAGGCACAUGAGGAUCACCCAUGUGGAGACGGUGG [JL bmx4 3.18] (puzzle: Brourd's mod of Exclusion 4)				44.3	
CCAUCGUGUGUGAGGAUAUGCUGGUCCUUGGAUCAGCAGAAGGCACAUGAGGAUCACCCAUGUGAAUACGGUGG [JL bmx4 3.21] (puzzle: Brourd's mod of Exclusion 4)				17.8	
CCCAAGUCAGGAUAUGGAACACAGAGACAUCUCUGUGCCCACCAGAAGGGACAUGAGGAUCACCCAUGUGAUGA [Soesat] (puzzle: Exclusion 4)				56.6	

Sequence	apparent KD of MS2 coat protein (input ligand: FMN 200 uM) [nM]	apparent KD of MS2 coat protein [1] [nM]	apparent KD of MS2 coat protein (input ligand: none) [nM]	apparent KD of MS2 coat protein [2] [nM]	also measured
CCCACAAGCUUUUUGCUCGACAUGAGGAUCACCCAUGUAAAAUGGGUAAAUUUAAAUUUAAAUUUAUUUAAAUUGGG [-18.1, -41.9 kcal, A 34%] (Eterna round: R97, puzzle: Sensor, turn-off variant 1)	80.9		102		
CCCACAAGCUUUUUGCUCGACAUGAGGAUCACCCAUGUUGAAUGGGUUAUAUAUAUAUGAAACAUAUAUAUAUACCU [-24.7, -47.5 kcal, A 32%] (Eterna round: R97, puzzle: Sensor, turn-off variant 1)	20.4		20.2		
CCCACCUCAUGAACAACAUGAGGAUCACCCAUGUUGAAGACUAAGGAUAUCGUACUCGAUGAAUGCGAGAAGGUGGCACUUCGA [Eternabot solution 36] (Eterna round: R96, puzzle: Exclusion NG 3)	37.3	20.7	28.7		
CCCACGUGAGGAUAUUCAACGGUAAGCGAUCUAUGCACCUUGAAGAAGGCACAUGAGGAUCACCCAUGUCCUAA [Eternabot (L1) Solution 44] (Eterna round: R97, puzzle: Exclusion 4)	44.8		22.2		
CCCAGUUACUGAGGAUAUCCUACAUGAGGAUCACCCAUGUAAUAAAUGAGGAUUUCGGGUGUCUAGGAGAAGGCAGGGAUAGGC [Ostracism 23 - Jieux - Exclusion NG 2] (Eterna round: R96, puzzle: Exclusion NG 2)	84.9	28.8	50.3		
CCCAGUUAGAGAGGAUAUCUUACAUGAGGAUCACCCAUGUAAUAAAUGAGGAUUUCGGGUGUCUAAGAGAAGGCUCGGAUAGGC [Ostracism 29 - Jieux - Exclusion NG 2] (Eterna round: R96, puzzle: Exclusion NG 2)	37.9	15.3	26.4		
CCCAGUUAUCUAGGAUAUUGUACAUGAGGAUCACCCAUGUAAUAAAUGAGGAUUUCGGGUGUCUACAAGAAGGAGAGGAUAGGC [Ostracism 16 - Jieux - Exclusion NG 2] (Eterna round: R96, puzzle: Exclusion NG 2)		20.4			
CCCAUGUUAGGAUAUAUGGAAGGGCGGACGGGCGCCCUAAGGUAGAAGGGACAUGAGGAUCACCCAUGUAAUAA [Diquar] (Eterna round: R97, puzzle: Exclusion 4)	194		160		
CCCAUGUUAGGAUAUCGGCUCCGCCGUUCCACAUGGCGCUCCGAGAAGGAACAUGAGGAUCACCCAUGUAAAGA [Raza] (puzzle: Exclusion 4)				34	
CCCGAGCAUGUAGGAUAUGGCUCGGUGUCUGGGCCAGAAGGACAUGAGGAUCACCCAUGUCUGCGGGUGUGGAUAUGAUUUGGG [-32, -31 kcal A 20%] (Eterna round: R96, puzzle: Exclusion NG 1)	85.2	14.5	32.1		
CCCGUCGAUGUAGGAUAUGCCCGGGUCUCCCGGGCAGAAGGACAUGAGGAUCACCCAUGUUCAUGAGGGUCGCCCAUGAAUGGG [Double but mutated MS2] (Eterna round: R96, puzzle: Exclusion NG 1)	88.8	17	21.2		
CCCGUGUAAGGAUAUGACAAUGGUAUCUUCGGAUACCAUUGUCAGAAGGUACAUGAGGAUCACCCAUGUAACAC [Ex4-3: 14] (puzzle: Exclusion 4)				28	
CCCUCAAGCGAGGAUAUAAAUGCGCAUUCGCGGUUAGAAGGCGCUACAUGAGGAUCACCCAUGUAAUUGUAUGG [jl-ex6-4.53 ViennaUCT mod] (Eterna round: R97, puzzle: Exclusion 6)	98.4		73.4		
CCCUCACAUGAGGAUCACCCAUGUCAGGAUAUUCGACGGUAAAUUGGCCGUCUUAAAGGAAGAAGGGACGUAAC [Lesoorxe] (puzzle: Exclusion 1)				13	
CCCUCACAUGAGGAUCACCCAUGUUAGGAUAUCUACCAGGAGCCUAAAAUGGCCCAACGGAGAAGGAACGUGCA [Arbire] (Eterna round: R96, puzzle: Exclusion 1)		14.7			
CCCUUGUGAGGAUAUUCUUAAAAUGCUAACCACAAUUUUAUGAAGAAGGCACAUGAGGAUCACCCAUGUUUCUC [mod1] (Eterna round: R97, puzzle: Exclusion 4)	80.5		96.4		
CCGAAACAUGAGGAUCACCCAUGUGAGGAUAUGAGCGUCUAGUUGAGAGAUUGGACGCUCAGAAGGCACAAAGG [JR_Ex1_Sub074] (Eterna round: R97, puzzle: Exclusion 1)	105		35.5		

From the supplement of paper PMC9170038
